{"source": "patent US20220033904A1", "about": "(CHILDREN S MEDICAL CENTER, published 2022)", "binders": {"B1": {"name": "USP8C (protein)", "chain": "RSYSSPDITQAIQEEEKRKPTVTPTVNRENKPTCYPKAEISRLSASQIRNLNPVFGGSGPALTGLRNLGNTCYMNSILQCLCNAPHLADYFNRNCYQDDINRSNLLGHKGEVAEEFGIIMKALWTGQYRYISPKDFKITIGKINDQFAGYSQQDSQELLLFLMDGLHEDLNKADNRKRYKEENNDHLDDFKAAEHAWQKHKQLNESIIVALFQGQFKSTVQCLTCHKKSRTFEAFMYLSLPLASTSKCTLQDCLRLFSKEEKLTDNNRFYCSHCRARRDSLKKIEIWKLPPVLLVHLKRFSYDGRWKQKLQTSVDFPLENLDLSQYVIGPKNNLKKYNLFSVSNHYGGLDGGHYTAYCKNAARQRWFKFDDHEVSDISVSSVKSSAAYILFYTSLGPRVTDVAT"}, "B2": {"name": "TMEM79-Flag (other)", "chain": "MTEPETLALLDMKEPETPEKSPPQALVLQSEEEGGTESPGTESLRVGSSVGSPIVREGPEDGPDSTISEAATLPWGTDPHPSAPLPDPPGWRDIEPEPLESEAPTKSEEPFKEDANLLPEKTVRAFVPIDLQCIERKPQEERILHRDAGPGELRNFLPARLSHPEPPERKWAEAVVRPPGRSCGGCGSCGGREALRAVASVVAALIFFPCLLYGAYAFLPFDAPRLPTMSSRLVYTLRCGVFATFPIVLGLLVYGLSLLCFSALRPFGEPRREVEIHRQYVAQSVQLFILYFFNLAVLSTYLPQDTLKLLPLLTGLFAISRLIYWLTFAVGRSFRGFGYGLTFLPLLAMLVWNLYYMFVVEPERMLTASESRLDYPDHARSVSDYRPRSWG", "notes": "Expressed in HEK293T cells; co-IP from lysates; not shown: Flag tag at the C-terminus"}, "B3": {"name": "TMEM79 (other)", "chain": "B2 chain", "notes": "It was expressed in HEK293T cells and tested by co-IP from lysates; also called Mattrin; full length TMEM79; not shown: Myc or Flag tag or both at the C-terminus"}}, "key": {"FZD5": {"molecular_target": "T1, FZD5", "T1 chain": "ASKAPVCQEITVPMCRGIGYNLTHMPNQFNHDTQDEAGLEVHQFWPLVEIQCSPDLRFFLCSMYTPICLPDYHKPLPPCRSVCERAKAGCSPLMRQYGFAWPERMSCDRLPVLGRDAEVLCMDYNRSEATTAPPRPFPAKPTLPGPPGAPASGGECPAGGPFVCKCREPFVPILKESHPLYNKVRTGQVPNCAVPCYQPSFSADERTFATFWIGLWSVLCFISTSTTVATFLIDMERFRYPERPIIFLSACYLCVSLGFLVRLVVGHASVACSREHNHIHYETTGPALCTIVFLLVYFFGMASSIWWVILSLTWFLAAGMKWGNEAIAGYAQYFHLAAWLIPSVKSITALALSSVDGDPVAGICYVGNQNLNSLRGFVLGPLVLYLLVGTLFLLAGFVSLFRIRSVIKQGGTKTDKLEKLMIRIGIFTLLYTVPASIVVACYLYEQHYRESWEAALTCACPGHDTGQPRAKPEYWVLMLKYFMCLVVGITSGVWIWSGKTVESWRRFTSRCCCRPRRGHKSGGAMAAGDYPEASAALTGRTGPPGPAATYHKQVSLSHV"}, "LRP6": {"molecular_target": "T2, LRP6 (human, UniProt O75581 20-1613)", "T2 construct": "whole, on cells; The legend says 'endogenous FZD5 but not LRP6'", "T2 sequence (O75581 20-1613)": "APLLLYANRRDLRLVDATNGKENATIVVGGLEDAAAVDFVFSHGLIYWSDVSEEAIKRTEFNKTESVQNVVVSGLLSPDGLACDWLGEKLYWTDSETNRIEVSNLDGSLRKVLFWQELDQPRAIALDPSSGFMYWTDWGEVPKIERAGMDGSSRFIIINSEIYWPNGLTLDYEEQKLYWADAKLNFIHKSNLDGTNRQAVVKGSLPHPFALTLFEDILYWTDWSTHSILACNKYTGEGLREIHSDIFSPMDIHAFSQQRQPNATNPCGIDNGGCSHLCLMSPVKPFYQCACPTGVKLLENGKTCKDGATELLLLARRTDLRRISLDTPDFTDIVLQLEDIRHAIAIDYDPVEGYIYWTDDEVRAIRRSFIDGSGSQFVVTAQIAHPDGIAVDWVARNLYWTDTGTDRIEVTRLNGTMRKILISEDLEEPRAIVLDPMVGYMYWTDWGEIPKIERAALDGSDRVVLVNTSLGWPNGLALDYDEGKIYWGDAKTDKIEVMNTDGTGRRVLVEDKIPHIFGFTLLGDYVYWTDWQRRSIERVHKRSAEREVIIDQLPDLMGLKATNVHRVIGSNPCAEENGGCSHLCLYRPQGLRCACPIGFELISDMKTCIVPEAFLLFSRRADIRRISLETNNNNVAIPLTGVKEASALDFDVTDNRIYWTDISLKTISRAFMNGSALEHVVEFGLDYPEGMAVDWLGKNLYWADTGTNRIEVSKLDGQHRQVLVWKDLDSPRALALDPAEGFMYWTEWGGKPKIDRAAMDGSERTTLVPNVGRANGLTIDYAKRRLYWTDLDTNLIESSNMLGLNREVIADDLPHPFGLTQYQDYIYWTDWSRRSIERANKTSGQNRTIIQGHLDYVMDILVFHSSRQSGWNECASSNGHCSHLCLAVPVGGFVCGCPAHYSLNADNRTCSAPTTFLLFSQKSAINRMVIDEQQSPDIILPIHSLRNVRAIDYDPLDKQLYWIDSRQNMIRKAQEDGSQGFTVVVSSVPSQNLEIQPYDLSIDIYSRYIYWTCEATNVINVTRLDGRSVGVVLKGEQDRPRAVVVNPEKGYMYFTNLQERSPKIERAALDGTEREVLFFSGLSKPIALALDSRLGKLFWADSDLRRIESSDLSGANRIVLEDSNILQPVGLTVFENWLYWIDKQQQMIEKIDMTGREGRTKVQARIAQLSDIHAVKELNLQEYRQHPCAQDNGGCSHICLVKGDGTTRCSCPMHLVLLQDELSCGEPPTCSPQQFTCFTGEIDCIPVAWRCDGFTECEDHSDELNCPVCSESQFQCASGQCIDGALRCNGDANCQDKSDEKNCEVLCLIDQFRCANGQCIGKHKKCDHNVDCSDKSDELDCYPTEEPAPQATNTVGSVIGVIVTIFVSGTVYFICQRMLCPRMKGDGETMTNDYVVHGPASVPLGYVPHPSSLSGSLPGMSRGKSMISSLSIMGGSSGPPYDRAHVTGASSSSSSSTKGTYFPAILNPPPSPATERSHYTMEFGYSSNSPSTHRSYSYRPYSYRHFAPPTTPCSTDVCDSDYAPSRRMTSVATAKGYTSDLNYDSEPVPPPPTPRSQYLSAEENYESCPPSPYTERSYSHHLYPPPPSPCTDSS", "assay": "co-IP, immunoblot (FIG. 3F)"}, "USP8N": {"molecular_target": "T3, USP8N (UniProt P40818 1-714, limits assumed)", "T3 construct": "domain: USP8 N terminus; also called USP8 N terminus; N-terminal half of USP8", "T3 sequence (looked up)": "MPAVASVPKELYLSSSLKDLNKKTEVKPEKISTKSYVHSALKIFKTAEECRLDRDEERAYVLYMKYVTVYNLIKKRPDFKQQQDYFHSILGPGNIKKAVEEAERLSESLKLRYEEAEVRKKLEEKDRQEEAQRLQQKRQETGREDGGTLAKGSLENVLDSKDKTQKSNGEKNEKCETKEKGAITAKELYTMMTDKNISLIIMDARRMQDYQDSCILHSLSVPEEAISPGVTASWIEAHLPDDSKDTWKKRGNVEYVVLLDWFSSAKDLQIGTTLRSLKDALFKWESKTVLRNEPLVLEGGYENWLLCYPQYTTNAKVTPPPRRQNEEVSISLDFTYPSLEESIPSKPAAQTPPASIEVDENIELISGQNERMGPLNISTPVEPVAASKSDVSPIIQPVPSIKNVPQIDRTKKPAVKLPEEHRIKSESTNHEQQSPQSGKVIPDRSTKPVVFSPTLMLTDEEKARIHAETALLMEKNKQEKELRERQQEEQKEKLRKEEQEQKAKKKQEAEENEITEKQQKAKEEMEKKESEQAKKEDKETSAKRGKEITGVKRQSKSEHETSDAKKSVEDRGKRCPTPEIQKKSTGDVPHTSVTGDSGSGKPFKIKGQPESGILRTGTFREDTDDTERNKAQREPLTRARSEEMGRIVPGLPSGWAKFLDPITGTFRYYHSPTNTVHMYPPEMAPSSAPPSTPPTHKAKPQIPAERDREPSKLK", "assay": "co-IP, immunoblot (FIG. 5C)"}}}
{"binder": "B1", "values": [{"measurement": "deubiquitination (ubiquitylation assay)", "setting": "FZD5", "value": "USP8C promoted deubiquitination of both FZD5 and SMO"}, {"measurement": "deubiquitination (ubiquitylation assay)", "setting": "SMO", "value": "USP8C promoted deubiquitination of both FZD5 and SMO"}]}
{"binder": "B2", "values": [{"measurement": "binding result", "setting": "LRP6", "value": "no binding"}]}
{"binder": "B3", "values": [{"measurement": "binding result", "setting": "USP8N", "value": "no binding"}]}
